# Read-outs that look alike come from different tables or passages of the source.
# B1: αPD-1 scFv, NH2-Histag(H6)-(GGGSG)3-VH-(GGGSG)4-VL-COOH (scFv, V domains shown)
# VH: EVQLQESGPGLVKPSQSLSLTCSVTGYSITSSYRWNWIRKFPGNRLEWMGYINSAGISNYNPSLKRRISITRDTSKNQFFLQVNSVTTEDAATYYCARSDNMGTTPFTYWGQGTLVTVSS
# VL: DIVMTQGTLPNPVPSGESVSITCRSSKSLLYSDGKTYLNWYLQRPGQSPQLLIYWMSTRASGVSDRFSGSGSGTDFTLKISGVEAEDVGIYYCQQGLEFPTFGGGTKLELK
# B2: intact anti-programmed death-1 antibody (αPD-1), clone RMP1-14 (antibody, V domains shown)
# VH: EVQLQESGPGLVKPSQSLSLTCSVTGYSITSSYRWNWIRKFPGNRLEWMGYINSAGISNYNPSLKRRISITRDTSKNQFFLQVNSVTTEDAATYYCARSDNMGTTPFTYWGQGTLVTVSS
# VL: DIVMTQGTLPNPVPSGESVSITCRSSKSLLYSDGKTYLNWYLQRPGQSPQLLIYWMSTRASGVSDRFSGSGSGTDFTLKISGVEAEDVGIYYCQQGLEFPTFGGGTKLELK
# Tests used:
# [1] = biological target: T1, programmed death-1 (PD-1) on EL4 cells (mouse (endogenous in EL4), UniProt Q02242); assay: flow cytometry on cells
# [2] = biological target: T1, programmed death-1 (PD-1) on EL4 cells; assay: flow cytometry on cells; remark: listed apart in the source
# T1 sequence (Q02242 25-288): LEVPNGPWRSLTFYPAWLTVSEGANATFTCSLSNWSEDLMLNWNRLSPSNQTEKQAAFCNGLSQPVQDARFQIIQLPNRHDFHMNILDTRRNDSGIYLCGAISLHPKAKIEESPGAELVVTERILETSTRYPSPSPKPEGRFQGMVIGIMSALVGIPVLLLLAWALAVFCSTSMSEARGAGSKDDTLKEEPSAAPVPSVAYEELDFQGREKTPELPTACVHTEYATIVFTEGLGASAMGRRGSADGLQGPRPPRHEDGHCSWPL
Binder,EC50 [1] [nM],EC50 [2] [nM]
B1,4160,320
B2,1320,–
